Kd data for 17 sequences are collected here from the Immune Epitope Database (IEDB).

The target in assay [1] is HLA-A*01:01. In words: IEDB peptide-MHC binding, purified MHC/competitive/radioactivity; filed as Kd, often an IC50 or EC50 that approximates it; ≥ and ≤ were set here for values at or beyond the usual limits of such assays.
The next assay concerns the target HLA-A*23:01. Described as above.
The next assay concerns the target HLA-A*24:02. The assay is described as above.
A further assay concerns the target HLA-A*26:01. The description is as above.
The target in a further assay is HLA-A*29:02. The assay is described as above.
For another assay, the target named is HLA-A*30:02. The description is as above.
A further assay deals with HLA-B*51:01. The description is as above.
Assay [2] addresses HLA-A*01:01. The assay is described as follows: IEDB peptide-MHC binding, purified MHC/direct/fluorescence; filed as Kd, often an IC50 or EC50 that approximates it; ≥ and ≤ were set here for values at or beyond the usual limits of such assays. Particulars: source organism: SARS-CoV1.
For a further assay, the target named is HLA-A*11:01. The assay is described as above. To be noted: source organism: SARS-CoV1.
A further assay has as its target HLA-B*15:01. The assay is described as above. To be noted: source organism: SARS-CoV1.
The target in another assay is HLA-B*58:01. The assay is described as above. To be noted: source organism: SARS-CoV1.
The target of the next assay is HLA-B*35:01. In words: IEDB peptide-MHC binding, purified MHC/competitive/radioactivity; filed as Kd, often an IC50 or EC50 that approximates it; ≥ and ≤ were set here for values at or beyond the usual limits of such assays.
The next assay deals with HLA-A*02:01. The assay is described as follows: IEDB peptide-MHC binding, purified MHC/competitive/fluorescence; filed as Kd, often an IC50 or EC50 that approximates it; ≥ and ≤ were set here for values at or beyond the usual limits of such assays.
The mark [3] stands for this setting: source organism: Vaccinia virus Copenhagen.
[4] abbreviates: source organism: Mammarenavirus guanaritoense.
[5] abbreviates: source organism: Dengue virus 4 Philippines/H241/1956.
Setting [6] is: source organism: SARS coronavirus Tor2.
Setting [7] is: source organism: Mammarenavirus lassaense.
[8] abbreviates: source organism: Dengue virus 3 Martinique/1243/1999.

FGDSEEPVTY: the dissociation constant Kd was 0.834 µM with HLA-A*01:01 [1] (setting [3]); 1.49 µM with HLA-A*23:01 (setting [3]); at least 70.3 µM with HLA-A*24:02 (setting [3]); at least 69.7 µM in the assay with HLA-A*26:01 (setting [3]); 13 µM with HLA-A*29:02 (setting [3]); 13.1 µM in the assay with HLA-A*30:02 (setting [3]).
As to CYSKSLRDLV, the dissociation constant (Kd) in the assay with HLA-A*01:01 [1] (setting [4]) is 12.6 µM; in the assay with HLA-A*23:01 (setting [4]), 3.07 µM; with HLA-A*24:02 (setting [4]) it was 0.529 µM; in the assay with HLA-A*26:01 (setting [4]) it was at least 69.7 µM; with HLA-A*29:02 (setting [4]), at least 43 µM; in the assay with HLA-A*30:02 (setting [4]) it was at least 69.7 µM.
For WPLHRMDLGV, the Kd in the assay with HLA-B*51:01 (setting [5]) is 3.28 µM.
For MFLARAIVF, the Kd was at least 78.1 µM with HLA-A*01:01 [1] (setting [6]); 19.4 µM with HLA-A*23:01 (setting [6]); at least 77.6 µM with HLA-A*24:02 (setting [6]); at least 34.1 µM with HLA-A*26:01 (setting [6]); 8.47 µM in the assay with HLA-A*29:02 (setting [6]); 16.6 µM in the assay with HLA-A*30:02 (setting [6]).
On to EYKLQQGTF, for which the Kd with HLA-A*01:01 [1] (setting [6]) is at least 78.1 µM; with HLA-A*23:01 (setting [6]), at least 35.1 µM; with HLA-A*24:02 (setting [6]) it was 11.3 µM; with HLA-A*26:01 (setting [6]) it was at least 77.9 µM; in the assay with HLA-A*29:02 (setting [6]), at least 31.6 µM; in the assay with HLA-A*30:02 (setting [6]), at least 78.9 µM.
Consider FNAPALQEAY, for which the Kd is 0.284 µM with HLA-A*01:01 [1] (setting [6]); at least 70 µM with HLA-A*23:01 (setting [6]); at least 70.3 µM in the assay with HLA-A*24:02 (setting [6]); 0.526 µM in the assay with HLA-A*26:01 (setting [6]); 0.0261 µM in the assay with HLA-A*29:02 (setting [6]); 0.336 µM with HLA-A*30:02 (setting [6]).
SASKSASVY: the Kd with HLA-A*01:01 [1] (setting [6]) is at least 24.7 µM; with HLA-A*23:01 (setting [6]) it was at least 77.8 µM; in the assay with HLA-A*24:02 (setting [6]), at least 77.6 µM; with HLA-A*26:01 (setting [6]), at least 20.8 µM; with HLA-A*29:02 (setting [6]) it was 4.99 µM; with HLA-A*30:02 (setting [6]) it was 0.385 µM.
On to VYRGTTTYKL, for which the Kd was 3.91 µM with HLA-A*01:01 [1] (setting [6]); 0.101 µM with HLA-A*23:01 (setting [6]); 0.136 µM in the assay with HLA-A*24:02 (setting [6]); 1 µM with HLA-A*26:01 (setting [6]); 0.216 µM with HLA-A*29:02 (setting [6]); 6.88 µM with HLA-A*30:02 (setting [6]).
Turning to SSLPSYAAY, the Kd in the assay with HLA-A*01:01 [2] was 1.62 µM; in the assay with HLA-A*11:01, 0.39 µM; in the assay with HLA-B*15:01, 0.0526 µM; with HLA-B*58:01 it was 0.287 µM; in the assay with HLA-A*23:01 (setting [6]) it was at least 77.8 µM; with HLA-A*24:02 (setting [6]), at least 77.6 µM. Besides, the Kd with HLA-A*26:01 (setting [6]) amounted to 5.04 µM; in the assay with HLA-A*29:02 (setting [6]), 0.00149 µM; with HLA-A*30:02 (setting [6]), 0.00027 µM.
For FAAGLLLRKL, the dissociation constant (Kd) in the assay with HLA-B*51:01 (source organism: Dengue virus 2 Jamaica/1409/1983) was 11.6 µM.
In the case of SMKSVQNNTV, the Kd with HLA-A*01:01 [1] (setting [4]) is at least 70.4 µM; in the assay with HLA-A*23:01 (setting [4]) it was at least 70 µM; with HLA-A*24:02 (setting [4]) it was at least 70.3 µM; with HLA-A*26:01 (setting [4]) it was at least 69.7 µM; in the assay with HLA-A*29:02 (setting [4]), at least 53.1 µM; with HLA-A*30:02 (setting [4]) it was 2.98 µM.
Take CFISVNDRLV: the Kd with HLA-A*01:01 [1] (setting [7]) was 18.1 µM; with HLA-A*23:01 (setting [7]), 0.358 µM; in the assay with HLA-A*24:02 (setting [7]) it was 11.4 µM; in the assay with HLA-A*26:01 (setting [7]) it was at least 69.7 µM; in the assay with HLA-A*29:02 (setting [7]), 5.26 µM; with HLA-A*30:02 (setting [7]) it was 0.573 µM.
WAYHGSYEA: in the assay with HLA-B*35:01 (setting [5]), the Kd came out at 0.167 µM.
VDSSQGSEY: the dissociation constant Kd is 0.892 µM in the assay with HLA-A*01:01 [1] (setting [6]); at least 77.8 µM with HLA-A*23:01 (setting [6]); at least 77.6 µM in the assay with HLA-A*24:02 (setting [6]); at least 24.4 µM with HLA-A*26:01 (setting [6]); 1.05 µM with HLA-A*29:02 (setting [6]); 1.98 µM with HLA-A*30:02 (setting [6]).
Take FTILALFLAH: the Kd is at least 20.9 µM with HLA-A*26:01 (setting [8]) and at least 24.9 µM in the assay with HLA-B*35:01 (setting [8]).
As to ALSSDGDTV, in the assay with HLA-A*02:01 (source organism: Vaccinia virus Tian Tan), the Kd was found to be 0.0096 µM.
Sequence RQMATTTNPLI gave a Kd in the assay with HLA-A*02:01 (source organism: Influenza A virus (A/parakeet/Chiba/1/97(H9N2))) of 0.013 µM.

As a reminder, the Kd is a measure of binding affinity in units of concentration.
